The target in assay [1] is MERS-CoV spike (S) protein (MERS-CoV) (UniProt K9N5Q8). The assay is described as follows: cell-based or functional assay.
Assay [2] addresses SARS-CoV-2 spike (S) glycoprotein (SARS-CoV-2) (UniProt P0DTC2). The assay is described as follows: cell-based or functional assay.

A value given as a limit tells only on which side of the number the result lay.

For the substance “MERS-CoV C-lipopeptide (MERS-CoV S HRC residues 1251-1286, cholesterol-conjugated)”, in assay [1], the IC50, plaque-neutralization test, MERS-CoV infection of Vero E6 cells was under 8 nM. In assay [2], this substance displayed an IC50, plaque-neutralization test, SARS-CoV-2 infection of Vero E6 cells of 90 nM.
